In patent publication US20250283065A1, “TRUNCATED POLYPEPTIDES HAVING PROTEIN LIGASE ACTIVITY AND METHODS OF PRODUCTION THEREOF” (NANYANG TECHNOLOGICAL UNIVERSITY, priority 2022, published 2025):

Columns and labels:
[1] = system: OaAEP1b-C247A-Δ351; experiment: Active site titration by FRET ligation assay with covalent inhibitor; assay type: biochemical, Oldenlandia affinis; conditions: 1 hour incubation with Ac-YVAD-cmk, enzyme 280 nM
Protocol: Active site titration: The procedure described in reference was followed. The enzyme preparation was diluted to a concentration of 280 nM using a buffer containing 20 mM sodium phosphate at pH 6.5, 5 mM 2-Mercaptoethanol. Solutions containing serial twofold dilution of inhibitor YVAD-cmk were prepared in a black microtiter plate (Greiner Bio-One) using buffer as diluent. The enzyme was subsequently added to the wells containing the inhibitor to a final volume of 50 μL. The plate was incubated for 1 hour at room temperature before adding FRET peptides (PIE {EDANS} YNAL (SEQ ID NO:18) and GIK {DABSYL} SIP (SEQ ID NO: 19)), which were mixed at a molar ratio of 1:3 giving a final enzyme: substrate molar ratio of 1:200. The EDANS fluorescence signal was measured with an excitation wavelength of 336 nm and an emission wavelength of 490 nm. Relative fluorescence units (RFU) of quenched EDANS signal were plotted against time. The value of the initial velocity (Vi) was determined from the slope of the RFU (t) curve. The measured value of Vi was subsequently normalized by dividing with the initial rate obtained in the absence of inhibitor (control V0). The calculated Vi/V0 ratio was plotted against inhibitor concentrations, generating an inhibition curve. […]

[2] = system: TrmJ-NAL; experiment: Conjugation of TrmJ with a fluorescent peptide (SDS PAGE); assay type: biochemical; conditions: 200 nM enzyme, 37° C., after an hour of reaction time
Protocol: Conjugation of TrmJ: A concentration of 200 nM of OaAEP1b-C247A-4351 was used to conjugate 10 μM of TrmJ-NAL with 50 μM of a short fluorescence peptide synthesized by Genscript: GIGGIYRK-FITC (SEQ ID NO:21). This reaction was carried out in a 20 mM NaH2PO4, pH 6.5 at 37° C. for 1 hour with a final volume of 500 μL. A volume of 50 µL of the reaction was mixed with 5×SDS loading dye after 5, 10, 20, 30 and 60 minutes. The amount of conjugated TrmJ-NAL at all time points was then analyzed using SDS PAGE.
To evaluate OaAEP1b-C247A-Δ351 conjugation capability, a protein of 20 kDa, tRNA methyltransferase, TrmJ were conjugated. TrmJ was modified to include the C-terminal OaAEP1b-C247A-Δ351 preferred tripeptide recognition motif (Asn-Ala-Leu). Using 200 nM of OaAEP1b-C247A-Δ351, TrmJ present in the solution was able to conjugate with a short fluorescence peptide consisting of an N-terminal Gly/Ile (GIGGIYRK-FITC) (SEQ ID NO: 21). The conjugation rate at 37° C. was analyzed using SDS PAGE at […] different time points.

B1: OaAEP1b-C247A-Δ351: truncated OaAEP1b-C247A construct, residues 352-474 deleted, D351 as C-terminus; constitutively active peptide asparaginyl ligase (protein)
chain: GTRWAVLIAGSKGYANYRHQAGVCHAYQILKRGGLKDENIVVFMYDDIAYNESNPRPGVIINSPHGSDVYAGVPKDYTGEEVNAKNFLAAILGNKSAITGGSGKVVDSGPNDHIFIYYTDHGAAGVIGMPSKPYLYADELNDALKKKHASGTYKSLVFYLEACESGSMFEGILPEDLNIYALTSTNTTESSWCYYCPAQENPPPPEYNVCLGDLFSVAWLEDSDVQNSWYETLNQQYHHVDKRISHASHATQYGNLKLGEEGLFVYMGSNPANDNYTSLDGNALTPSSIVVNQRDAD
B1 was tested, and the “fraction of the measured protein concentration that is active and amenable to complete inhibition” value [1] was “about 53%” and the “conjugation of TrmJ with GIGGIYRK-FITC” value [2] was “most of TrmJ was labelled with FITC”.
